# Biological target: ErbB4 (full-length, expressed in mammalian cells) (human) (UniProt Q15303)
# Assay: cell-based or functional assay
# Sequence of ErbB4 (full-length, expressed in mammalian cells) (human) (Q15303 26-1308 limits assumed): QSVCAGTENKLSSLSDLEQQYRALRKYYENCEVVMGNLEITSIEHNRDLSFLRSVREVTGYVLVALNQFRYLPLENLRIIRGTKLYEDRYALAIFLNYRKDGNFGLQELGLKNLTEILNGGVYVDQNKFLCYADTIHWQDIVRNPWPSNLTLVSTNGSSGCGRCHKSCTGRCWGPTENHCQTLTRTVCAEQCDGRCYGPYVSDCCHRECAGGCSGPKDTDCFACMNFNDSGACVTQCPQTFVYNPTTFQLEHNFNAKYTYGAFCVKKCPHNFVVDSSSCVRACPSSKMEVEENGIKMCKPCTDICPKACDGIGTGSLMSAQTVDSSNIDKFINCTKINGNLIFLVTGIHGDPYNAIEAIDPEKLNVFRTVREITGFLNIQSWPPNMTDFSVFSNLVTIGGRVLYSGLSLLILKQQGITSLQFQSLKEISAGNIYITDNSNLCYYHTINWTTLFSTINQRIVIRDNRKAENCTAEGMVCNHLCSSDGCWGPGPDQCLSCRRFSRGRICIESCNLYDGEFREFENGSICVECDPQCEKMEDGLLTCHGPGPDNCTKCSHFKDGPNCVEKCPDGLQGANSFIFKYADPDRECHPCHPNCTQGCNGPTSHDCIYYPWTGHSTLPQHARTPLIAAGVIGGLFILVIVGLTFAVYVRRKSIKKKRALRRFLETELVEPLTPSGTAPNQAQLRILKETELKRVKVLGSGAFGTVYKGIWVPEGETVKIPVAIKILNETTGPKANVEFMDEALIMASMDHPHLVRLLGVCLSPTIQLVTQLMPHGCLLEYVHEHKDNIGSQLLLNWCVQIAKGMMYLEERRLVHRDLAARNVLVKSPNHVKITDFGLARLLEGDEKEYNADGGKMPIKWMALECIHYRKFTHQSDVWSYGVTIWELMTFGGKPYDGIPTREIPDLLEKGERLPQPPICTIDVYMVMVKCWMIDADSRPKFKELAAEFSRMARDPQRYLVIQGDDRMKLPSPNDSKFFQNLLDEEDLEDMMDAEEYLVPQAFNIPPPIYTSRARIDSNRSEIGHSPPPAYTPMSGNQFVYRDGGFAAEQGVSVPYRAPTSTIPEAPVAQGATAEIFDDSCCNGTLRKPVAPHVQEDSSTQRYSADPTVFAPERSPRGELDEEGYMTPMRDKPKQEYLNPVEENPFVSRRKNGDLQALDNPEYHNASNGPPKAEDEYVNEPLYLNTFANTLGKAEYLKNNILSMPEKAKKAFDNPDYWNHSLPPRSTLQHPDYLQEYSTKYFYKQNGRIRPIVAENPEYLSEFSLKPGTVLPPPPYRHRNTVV
substance,measurement,value
NRG1 (recombinant human HRG-αEGF domain; R&D Systems) (from UniProt Q02297 177-241) (ligand),"NRG1 EC50, luciferase reporter gene under a promoter containing a serum response element (SRE), CHO-K1 cells expressing ErbB4 with or without Fyn",1 nM

# — US20060029546A1, “Materials and methods for identifying anti-schizophrenic agents” (deCODE Genetics, Inc., priority 2004, published 2006)
